Measured values taken from patent publication US20040072758A1.

T1: rat neurotensin type 1 receptor (rat), P20789
T1 chain: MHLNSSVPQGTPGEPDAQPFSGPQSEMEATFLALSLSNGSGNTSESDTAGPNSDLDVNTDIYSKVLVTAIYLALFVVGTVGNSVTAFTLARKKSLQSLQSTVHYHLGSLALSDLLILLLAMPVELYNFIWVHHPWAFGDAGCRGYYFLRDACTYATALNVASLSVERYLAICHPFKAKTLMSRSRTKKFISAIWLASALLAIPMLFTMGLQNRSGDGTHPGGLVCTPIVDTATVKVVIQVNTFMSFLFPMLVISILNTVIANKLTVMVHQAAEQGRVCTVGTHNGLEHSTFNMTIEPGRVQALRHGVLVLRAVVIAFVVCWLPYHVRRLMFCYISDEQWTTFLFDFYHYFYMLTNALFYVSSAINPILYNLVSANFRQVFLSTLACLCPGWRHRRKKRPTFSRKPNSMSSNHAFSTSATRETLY

T2: mouse neurotensin type 3 receptor (solubilized) (mouse), Q6PHU5
T2 chain: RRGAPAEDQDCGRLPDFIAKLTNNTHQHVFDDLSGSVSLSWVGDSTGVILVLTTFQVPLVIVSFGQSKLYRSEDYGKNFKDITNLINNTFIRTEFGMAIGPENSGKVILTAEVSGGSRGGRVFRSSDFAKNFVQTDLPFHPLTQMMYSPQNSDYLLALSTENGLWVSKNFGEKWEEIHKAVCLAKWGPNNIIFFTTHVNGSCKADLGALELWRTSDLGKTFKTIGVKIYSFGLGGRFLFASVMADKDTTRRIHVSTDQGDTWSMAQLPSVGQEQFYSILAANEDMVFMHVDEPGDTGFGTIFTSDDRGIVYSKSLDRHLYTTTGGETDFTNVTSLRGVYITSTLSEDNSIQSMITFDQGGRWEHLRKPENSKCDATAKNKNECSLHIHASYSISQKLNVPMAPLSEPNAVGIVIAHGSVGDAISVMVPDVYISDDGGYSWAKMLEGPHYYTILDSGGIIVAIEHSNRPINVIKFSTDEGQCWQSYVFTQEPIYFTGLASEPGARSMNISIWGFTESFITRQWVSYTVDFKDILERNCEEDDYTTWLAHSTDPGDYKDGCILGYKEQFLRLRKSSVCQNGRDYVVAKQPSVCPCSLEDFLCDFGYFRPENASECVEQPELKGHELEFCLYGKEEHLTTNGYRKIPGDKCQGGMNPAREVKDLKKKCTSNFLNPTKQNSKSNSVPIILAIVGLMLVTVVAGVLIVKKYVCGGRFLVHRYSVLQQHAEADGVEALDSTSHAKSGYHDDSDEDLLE

T3: rat neurotensin type 2 receptor (rat), Q63384
T3 chain: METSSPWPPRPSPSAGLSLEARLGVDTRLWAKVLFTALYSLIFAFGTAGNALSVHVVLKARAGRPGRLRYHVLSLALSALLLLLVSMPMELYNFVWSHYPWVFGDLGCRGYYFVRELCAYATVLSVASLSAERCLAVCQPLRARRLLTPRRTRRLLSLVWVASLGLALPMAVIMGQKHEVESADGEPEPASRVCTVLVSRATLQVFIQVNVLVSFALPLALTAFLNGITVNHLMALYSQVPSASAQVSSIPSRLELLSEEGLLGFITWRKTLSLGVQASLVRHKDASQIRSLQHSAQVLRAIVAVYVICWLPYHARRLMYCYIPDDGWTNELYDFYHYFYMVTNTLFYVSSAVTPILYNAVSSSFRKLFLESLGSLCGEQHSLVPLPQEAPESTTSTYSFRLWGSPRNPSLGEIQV


Key:
[1] = target: T1, rat neurotensin type 1 receptor (rat), …
[2] = target: T2, mouse neurotensin type 3 receptor …
[3] = target: human neurotensin type 1 receptor (human), P30989
[4] = target: T3, rat neurotensin type 2 receptor (rat), …
[5] = target: human neurotensin type 1 receptor (human), P30989; test: competition radioligand binding, reference neurotensin1-13

Chain of human neurotensin type 1 receptor (human), P30989 (P30989 whole entry): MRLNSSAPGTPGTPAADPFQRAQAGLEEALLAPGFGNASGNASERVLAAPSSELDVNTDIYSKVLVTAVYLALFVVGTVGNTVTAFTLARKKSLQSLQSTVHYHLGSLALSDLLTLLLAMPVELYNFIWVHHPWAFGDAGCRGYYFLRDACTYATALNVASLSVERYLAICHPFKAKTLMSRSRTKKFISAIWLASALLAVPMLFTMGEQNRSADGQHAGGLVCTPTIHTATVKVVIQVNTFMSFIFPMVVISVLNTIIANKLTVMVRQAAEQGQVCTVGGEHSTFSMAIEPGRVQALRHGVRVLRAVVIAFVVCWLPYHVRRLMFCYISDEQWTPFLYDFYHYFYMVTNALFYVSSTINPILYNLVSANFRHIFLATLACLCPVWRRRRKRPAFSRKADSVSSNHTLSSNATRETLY

Binder	IC50 [1] [nM]	IC50 [2] [nM]	IC50 [3] [nM]	IC50 [4] [nM]	fold lower affinity than Neurotensin1-13 [5] [fold]
QSEEGGSNATKKPYIL (modifications not checked) [contulakin-G (synthetic glycosylated 16-amino acid peptide, Gal(beta1->3)GalNAc(alpha1->) on Thr10)]	524	250	960	730	
QSEEGGSNATKKPYIL (modifications not checked) [non-glycosylated Thr10-contulakin-G]	79	71	23	170	10
